Key:
[1] = system: human Galr2; assay: Recruitment of β-arrestin2-FlasH1-3 to Galr2 (NanoBit); type: cell-based; settings: NanoBit luminescence
Text: To investigate the effects of GPCR activation on the dynamics of β-arrestin2 conformation, we developed a series of FlasH BRET conformational biosensors[31],[32] by inserting the six-amino-acid motif, CCPGCC, immediately after the amino acid residue 140 (FlasH1), 263 (FlasH2), and 410 (FlasH3), respectively, into the human β-arrestin2 (Fig. 7a, b). Due to its characteristics (e.g., small size, stable, and bright and sustained luminescence)[33], we covalently linked the Nluc to the N terminus of β-arrestin2 during probe design. Each probe (Nluc–β-arrestin2–FlasH1, 2, and 3) was designed to measure BRET between Nluc and a fluorescein arsenical acceptor located at one of three positions along β-arrestin2. […] All three ligands were able to recruit these β-arrestin2–FlasH constructs to induce luminescence signals, although some signals were lower than that of wild-type β-arrestin2 (Fig. 7c). […]
The arrows indicate the time for treatment with the corresponding agonist. d Nluc–β-arrestin2–FlasH1-3 “conformational hallmarks” of β-arrestin2 by binding to Galr2. The bar graphs depict mean ± s.e.m. values of independent biological replicates (n = 3). *P < 0.05, **P < 0.005, statistically significant differences versus Galanin-stimulated control as determined by a one-way analysis of variance (ANOVA). […]

[2] = system: mice; settings: cited from earlier work
Text: (§1) G-protein-coupled receptors (GPCRs) are the largest family of cell surface receptors that communicate extracellular stimuli to the cell interior[1]. Biased ligands are of particular interest because they offer the possibility to design a novel class of therapeutic agents. In some GPCRs, biased ligands that preferentially activate G-protein-dependent signaling have therapeutic potential. […] Most descriptions of biased ag ...

[3] = system: human β-arrestin2 (Galr2-stimulated); assay: Intramolecular FlasH BRET at β-arrestin2 conformational biosensors; type: cell-based; settings: HEK293 cells, 10 μM agonist
Text: To investigate the effects of GPCR activation on the dynamics of β-arrestin2 conformation, we developed a series of FlasH BRET conformational biosensors[31],[32] by inserting the six-amino-acid motif, CCPGCC, immediately after the amino acid residue 140 (FlasH1), 263 (FlasH2), and 410 (FlasH3), respectively, into the human β-arrestin2 (Fig. 7a, b). Due to its characteristics (e.g., small size, stable, and bright and sustained luminescence)[33], we covalently linked the Nluc to the N terminus of β-arrestin2 during probe design. Each probe (Nluc–β-arrestin2–FlasH1, 2, and 3) was designed to measure BRET between Nluc and a fluorescein arsenical acceptor located at one of three positions along β-arrestin2. We hypothesized that observing changes in BRET efficiency from multiple sites would produce a β-arrestin2 conformational hallmark characteristic for each ligand[31]. We used a structural complementation assay based on NanoBit technology to test whether the insertion of the FlasH motif would have an effect on β-arrestin2 recruitment. All three ligands were able to recruit these β-arrestin2–FlasH constructs to induce luminescence signals, although some signals were lower than that of wild-type β-arrestin2 (Fig. 7c). […]
Intramolecular BRET at β-arrestin2 conformational biosensors was measured based on the steps and procedures previously described. […]

[4] = target: T1, Galr2–β-arrestin2 complex (Homo sapiens, UniProt O43603); assay: Reversal assay for dissociation kinetics; type: cell-based
T1 construct: expressed in transfected cells; host or cells: HEK293 cells, transient transfection with Lipofectamine 2000; b62 only says 'the cells'
Description: The decay of the luminescent signal may reflect dissociation rate of ligand from Galr2 as the β-arrestin2 response returns to basal levels in washout experiments.
Ligand removal was performed by simply changing the medium containing no ligand and then immediately continue measuring luminescence. Samples with no ligand removal were used as a control. […] The results are expressed as the mean ± s.e.m. values of two independent experiments
One day before transfection, the cells were seeded in 96-well plates at a density of 2.5 × 10^4 cells per well. […] At 24 h post transfection, the medium was aspirated and replaced with 100 μl OPTIMEM and incubated at room temperature. After a 10-min incubation, 25 μl substrate (furimazine) was added, and once every minute subsequent luminescence measurements were taken for 10 min for signal stabilization. A total of 10 μl ligand was then added to each well and luminescence measurements were recorded immediately and once every minute during 10 min for signal stabilization. After that time wells allocated for ligand removal, ligand containing medium was replaced for medium containing only furimazine substrate and no ligand. Immediately continued recording the time course luminescence values once every minute during 1 h.

[5] = system: diet-induced obese rodents; settings: cited from earlier work
Text: as §1

[6] = system: galanin receptor 1 (Galr1); settings: cited from earlier work
Text: as §1

[7] = system: goldfish; settings: cited from earlier work
Text: as §1

[8] = system: luteinizing hormone (LH) secretion; settings: cited from earlier work
Text: as §1

T1 sequence (O43603 whole entry): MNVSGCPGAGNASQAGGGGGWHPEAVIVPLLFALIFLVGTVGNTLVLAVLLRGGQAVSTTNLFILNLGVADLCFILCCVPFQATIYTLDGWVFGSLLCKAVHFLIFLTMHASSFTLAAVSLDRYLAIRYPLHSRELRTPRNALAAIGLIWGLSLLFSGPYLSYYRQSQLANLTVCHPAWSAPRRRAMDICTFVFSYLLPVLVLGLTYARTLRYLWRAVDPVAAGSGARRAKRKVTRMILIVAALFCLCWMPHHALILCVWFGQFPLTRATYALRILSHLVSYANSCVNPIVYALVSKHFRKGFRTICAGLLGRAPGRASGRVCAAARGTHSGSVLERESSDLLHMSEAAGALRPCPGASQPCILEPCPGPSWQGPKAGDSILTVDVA
T1 sequence (P32121 whole entry partner): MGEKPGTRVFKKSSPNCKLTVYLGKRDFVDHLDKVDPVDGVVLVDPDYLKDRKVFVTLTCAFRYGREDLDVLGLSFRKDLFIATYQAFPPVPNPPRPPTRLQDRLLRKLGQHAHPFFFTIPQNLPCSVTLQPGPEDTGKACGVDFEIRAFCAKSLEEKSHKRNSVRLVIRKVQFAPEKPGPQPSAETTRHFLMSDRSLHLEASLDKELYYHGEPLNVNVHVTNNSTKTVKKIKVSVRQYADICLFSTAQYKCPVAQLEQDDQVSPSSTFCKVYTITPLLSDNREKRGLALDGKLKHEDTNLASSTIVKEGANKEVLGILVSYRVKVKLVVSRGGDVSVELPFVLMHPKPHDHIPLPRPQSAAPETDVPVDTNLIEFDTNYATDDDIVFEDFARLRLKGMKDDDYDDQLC

half-life (t1/2) of Galr2–β-arrestin2 complex luminescence decay after ligand removal ([4]; HEK293 cells, 10 μM agonist, washout, indirect measure of ligand dissociation, mean ± s.e.m. of two independent experiments)	residence time relative to Galanin ([4]; reversal dissociation assay)	Molecule	recruitment of β-arrestin2–FlasH1-3 constructs [1]	food intake [2]	ΔNet BRET in Nluc–β-arrestin2–FlasH1-3 versus Galanin ([3]; 2 min, n = 3, each probe)	ΔNet BRET similarity between Spexin and Fmoc-dA4-dQ14 ([3]; FlasH1-3 biosensors)	decrease in luminescence signal after ligand removal ([4]; 10 μM agonist, medium change, two independent experiments)	body weight [5]	activation of Galr1 [6]	appetite [7]	LH secretion, goldfish [8]
		Galanin [reference compound]	maximal response	food intake increase							
3.35 ± 0.7 min	significantly shorter than Galanin	Spexin (peptide, UniProt Q9BT56 27-116, looked up, Spexin, endogenous peptide ligand of Galr2 and Galr3; synthesized by AnyGen) Spexin: APQRLLERRNWTPQAMLYLKGAQGRRFISDQSRRKDLSDRPLPERRSPNPQLLTIPEAATILLASLQKSPEDEEKNFDQTRFLEDSLLNW			significantly different from those observed in Galanin	very similar between Spexin and Fmoc-dA4-dQ14 except for the FlasH3 conformational biosensor	rapid decrease in luminescence signal back to basal levels	weight loss	does not activate Galr1	suppresses appetite	attenuates LH secretion

From article PMC6123711, “Conformational signatures in β-arrestin2 reveal natural biased agonism at a G-protein-coupled receptor” (Communications Biology, 2018)
